This is an account of results in article PMC12557367, ““Precision on Two Wheels”–Structural Refinement of ^64Cu- and ^68Ga-Labeled Bicyclic Peptides Targeting Nectin‑4 for Improved Tumor Imaging: From Preclinical Development to First-in-Human Application” (Journal of Medicinal Chemistry, 2025).

Numbered stars: 1 amine (or outer) side, 2 acyl side, 3 side chain; on linkers, the order of the positions; unused ones are H or OH. Bridge positions count the residues as written; N and C are the ends. Square brackets hold non-standard residues; d marks the D form. * marks the point of attachment. 6‑TAMRA = CN(C)c1ccc2c(-c3cc(C(=O)*)ccc3C(=O)[O-])c3ccc(N(C)C)cc3[o+]c2c1; (R)‑NODAGA = O=C(O)CN1CCN(CC(=O)O)CCN([C@H](CCC(=O)*)C(=O)O)CC1; 6FAM = O=C1OC2(c3ccc(O)cc3Oc3cc(O)ccc32)c2cc(C(=O)*)ccc21; TATA = O=C(CC[*:1])N1CN(C(=O)CC[*:2])CN(C(=O)CC[*:3])C1; Mox = methoxinine, COCC[C@H](N[*:1])C(=O)[*:2]; 1Nal = N[C@@H](Cc1cccc2ccccc12)C(=O)O; 2Nal = N[C@@H](Cc1ccc2ccccc2c1)C(=O)O; Hyp = O=C(O)[C@@H]1C[C@@H](O)CN1; hArg = N=C(N)NCCCC[C@H](N)C(=O)O

Test [1] addresses T1, recombinant human nectin-4 (human, UniProt Q96NY8 32-349).
T1 construct: nectin-4, human, recombinant; also called complete extracellular domain of nectin-4; source: bought: R&D Systems (Catalog number 2659-N4)
T1 sequence (looked up): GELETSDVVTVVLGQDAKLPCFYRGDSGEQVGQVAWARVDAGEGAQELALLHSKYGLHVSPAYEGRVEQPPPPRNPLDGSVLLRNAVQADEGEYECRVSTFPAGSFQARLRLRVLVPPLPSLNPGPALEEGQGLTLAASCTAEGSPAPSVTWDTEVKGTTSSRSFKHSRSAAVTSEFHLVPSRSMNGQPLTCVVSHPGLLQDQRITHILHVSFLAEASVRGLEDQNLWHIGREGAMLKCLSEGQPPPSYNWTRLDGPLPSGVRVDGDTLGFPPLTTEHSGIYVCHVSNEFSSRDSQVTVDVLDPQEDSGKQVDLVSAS
The experiment in a line: fluorescence polarisation; fluorescence anisotropy, direct binding: 1 nM fluorescent probe, 11 to 13 concentrations of nectin-4 (e.g. 0.06-250 nM), 37 °C, 1200 s, HEPES buffer 20 mM pH 7.4, 0.01% Tween20, NaCl, 1% DMSO; Morrison equation. To be noted: both partners purified.

The target in test [2] is T2, recombinant N-terminal Ig-like V domain of nectin-4 (human).
T2 construct: nectin-4, N-terminal Ig-like V domain, recombinant; source: bought: Acro Biosystems (NE4-H82Ea)
T2 sequence (Q96NY8 whole entry): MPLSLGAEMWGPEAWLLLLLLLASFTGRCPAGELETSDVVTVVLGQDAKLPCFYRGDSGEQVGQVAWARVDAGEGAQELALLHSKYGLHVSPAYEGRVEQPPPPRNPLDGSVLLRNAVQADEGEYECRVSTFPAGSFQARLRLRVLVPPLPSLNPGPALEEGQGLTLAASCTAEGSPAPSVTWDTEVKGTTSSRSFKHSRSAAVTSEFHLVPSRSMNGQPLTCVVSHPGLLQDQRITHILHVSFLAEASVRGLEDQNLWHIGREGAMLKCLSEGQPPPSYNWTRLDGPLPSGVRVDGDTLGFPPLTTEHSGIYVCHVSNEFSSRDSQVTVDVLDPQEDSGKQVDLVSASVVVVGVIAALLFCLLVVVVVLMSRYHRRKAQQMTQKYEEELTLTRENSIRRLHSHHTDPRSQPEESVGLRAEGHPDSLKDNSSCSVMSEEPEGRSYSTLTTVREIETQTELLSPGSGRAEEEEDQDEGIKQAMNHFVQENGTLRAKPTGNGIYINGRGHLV
The experiment in a line: fluorescence polarisation; fluorescence anisotropy, direct binding of probe 1a to the N-terminal Ig-like V domain of nectin-4; same procedure as for nectin-4. To be noted: both partners purified.

Test [3] deals with T3, nectin-4 on intact HT-1376 cells (human (endogenous in HT-1376), UniProt Q96NY8 32-510).
T3 construct: also called cellular nectin-4
T3 sequence (looked up): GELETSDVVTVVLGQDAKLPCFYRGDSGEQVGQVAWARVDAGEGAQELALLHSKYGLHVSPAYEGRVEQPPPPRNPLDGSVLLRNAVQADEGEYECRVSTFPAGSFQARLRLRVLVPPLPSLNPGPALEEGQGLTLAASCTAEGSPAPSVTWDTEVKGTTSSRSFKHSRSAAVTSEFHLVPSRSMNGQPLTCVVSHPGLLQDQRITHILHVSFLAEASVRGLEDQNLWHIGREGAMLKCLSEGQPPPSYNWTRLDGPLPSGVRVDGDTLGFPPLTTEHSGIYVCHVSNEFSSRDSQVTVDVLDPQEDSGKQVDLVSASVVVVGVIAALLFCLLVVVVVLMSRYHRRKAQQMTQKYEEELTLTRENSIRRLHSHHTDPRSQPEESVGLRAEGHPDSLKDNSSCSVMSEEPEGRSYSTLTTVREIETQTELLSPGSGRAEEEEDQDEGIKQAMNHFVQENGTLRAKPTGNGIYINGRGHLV
Kind of test: radioligand binding; cellular efflux: release of [64Cu]Cu-4 from intact HT-1376 cells over 4 h at 37 °C after 1 h incubation at 10 nM; two-phase decay. As to conditions: one partner purified.

The target in test [4] is T3, nectin-4 on intact HT-1376 cells. Kind of test: radioligand binding; saturation binding on intact HT-1376 cells, 10 radioligand concentrations (0.156-80 or 0.321-160 nM), 37 °C, 1 h, PBS wash; nonspecific with 1 µM 1d; apparent (covers binding and putative internalisation). As to conditions: one partner purified.

As to {6‑TAMRA}-CP[1Nal][dD]CM[hArg]DWSTP[Hyp]WC-NH2 (linker 1-5-15 via TATA) [1a], the values for the Kd in test [1] and in test [2] were 0.94 ± 0.09 nM and 1.3 nM, respectively.
Regarding 6FAM-CP[1Nal][dD]CM[hArg]DWSTP[Hyp]WC-NH2 (linker 1-5-15 via TATA) [1b], the Kd in test [1] stood at 0.17 ± 0.01 nM.
With {(R)‑NODAGA}-CP[1Nal][dD]C[Mox][hArg]DWSTP[Hyp]WC-NH2 (linker 1-5-15 via TATA; also: NODAGA complexed with 64Cu) [[64Cu]Cu-4], in test [3], the “half-life of the fast phase of cellular release” value was found to be 9.5 min. Also, the Kd in test [4] was found to be 6.06 nM.
Turning to 6FAM-CP[2Nal][dD]CMRDWSTP[Hyp]WC-NH2 (linker 1-5-15 via TATA) [8b], the Kd in test [1] was 1.38 ± 0.06 nM.
